The source of these data is patent publication EP4644419A1 (Hangzhou Zhongmeihuadong Pharmaceutical Co., Ltd., dated 2025).

Numbering of substitutions follows the chain as printed.

T1: human CD112R antigen protein huCD112R-His (Acro Biosysterm, PVG-H52H4) (human, UniProt Q6DKI7 41-171)
T1 construct: purchased; also called human antigen protein; not shown: His tag
T1 sequence (looked up): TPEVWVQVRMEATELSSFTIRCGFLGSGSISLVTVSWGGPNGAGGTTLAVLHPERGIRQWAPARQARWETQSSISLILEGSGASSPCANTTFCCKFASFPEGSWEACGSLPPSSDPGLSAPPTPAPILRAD

T2: monkey antigen protein (monkey CD112R, Uniprot ID: A0A2K5WVV8) (monkey, UniProt A0A2K5WVV8 41-171)
T2 sequence: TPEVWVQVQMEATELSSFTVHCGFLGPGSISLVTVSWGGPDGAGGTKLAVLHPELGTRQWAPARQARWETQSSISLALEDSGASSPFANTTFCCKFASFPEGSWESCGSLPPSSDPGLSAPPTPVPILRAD

B1: C101 (antibody, human IgG1, kappa, V domains shown)
VH: EVQLQQSGPELVKPGSSVKISCEASGFTFADYNVDWVKQSHGKSLEWIGAINPNDGGTSYNQKFEGKATLTVDKSSTTAYMELRSLTSEDSAVYYCARWVNNDWYFDVWGTGTTVTVSS
VL: DIVMTQSQKFMSTSVGDRVSITCKASQNVRSAVDWYQQKPGQSPKTLIHSASNRHTGVPDRFTGSGSGTDFTLTISNIQSEDLADYFCLQHWNYPYTFGGGTKLEVKR
B2: C105 (antibody, human IgG1, kappa, V domains shown)
VH: EVQLQQSGPELVKPGSSMKISCKASGYTFTDYSMDWVKQSHGKSLEWIGAINPNNGGTSYNQKFKDKATLTVDRSSSTAYMELRSLTSEDSAVYYCARWDSDYWYFDVWATGTTVTVSS
VL: B1 VL with S31T, T46A, H49Y, I78V, V106I
B3: C115 (antibody, human IgG1, kappa, V domains shown)
VH: EVQLQQSGAELVKPGASVKLSCTASGFNIEDTYIHWVKRRPEQGLEWIGGIDPAIGNTLYASKFQDMATITADTSSSTAYMQLSSLTSGDTAVYYCARERVYSNTLYYAMDYWGQGTSVTVSS
VL: DIVLTQSPASLVVSLGQRATISCRASKSVSISGYSYMHWYQQKPGQPPKLLIYLASNLESGVPARFSGSGSGTDFTLNIHPVEAEDAATYYCQHSRELPPTFGGGTNLEIKR
B4: C120 (antibody, human IgG1, kappa, V domains shown)
VH: EVQLQQSGPEVVKPGASVKISCKASGNTLTDYFINWVKQSHGKNLEWIGDINPDNGAGNYNQKFKGKATLTVDKSSGTAFMGLRSLTSEDSAVYYCATLYFDYWGQGTTLTVSS
VL: DIVMTQSPSSLSVSTGEKVTMSCRSSQSLLNSGNQKNYLAWYQQKPGQPPKLLIYGASTRESGVPDRFTGSGSGTDFTLTISSVQAEDLAIYYCQNAHTSPYTFGGGTRLEIKR
B5: C111 (antibody, human IgG1, kappa, V domains shown)
VH: QVQLQQSGPELARPGASVKLSCKASGYTLTSHGISWVKQRTGQGLEWIGEIYPGSESPYYSEKFKGKATLTADKSSNIAYMQLSSLTSEDSAVYFCARSDYSDYWAMDYWGQGTSVTVSS
VL: B1 VL with F10C, D34A, H49Y, S50L, S76T, I78V, Y96W, K103E, V106I
B6: C113 (antibody, human IgG1, kappa, V domains shown)
VH: EVQLQQSGPELVKPGSSVKISCKASGYTFTDYNLDWMKQSHGSSLEWIGAMSPNNGATSYNQKFKGKATLTVDKSSSTAYMELRSLTSEDSAVYYCARWDSNSWYFDVWGTGTTVTVSS
VL: B1 VL with N28I, S31T, P40S, T46A, H49Y, N53T, S76D, I78V, D85E, V106I
B7: C146 (antibody, human IgG1, kappa, V domains shown)
VH: B1 VH with F27Y, A79V
VL: B1 VL with N53S
B8: C39 (antibody, human IgG1, kappa, V domains shown)
VH: QAYLQQSGAELVRPGASVKMSCKASGYTFTSYNIHWVKQTPRQGLEWIGAIYPGNADISYNQKFRDKATLTVDKSSSTAYMQLSSLTSEDSAVYFCAKPLRIYAMDCWGQGTSVTVSS
VL: DIVMTQSQKFMSTSVGDRVSVTCKASQNVGTNVAWYQQKPGQSPKALIYSASYRYSGVPDRFTGSGSGTDFTLTISNVQSEDLADYFCQQYNSRPLTFGGGTKLEIKR
B9: C136 (antibody, human IgG1, kappa, V domains shown)
VH: DVQLVESGGGLVKPGGSLKLSCAASGFSFSENYMYWVRQTPEKRLEWVATISDGASYTYYPDNVKGRFTISRDTAKNNLYLQMSHLKSEDTAMYYCTRDELIAPFAYWGQGTLVTVSA
VL: DIVMTQSHKFMSTSVGDRVSITCKASQDVGTAVAWFQQKPGQSPKLLIYWASTRHTGVPDRFTGSGSGTDFTLTISNVQSEDLADYFCQQYNSYPWTFGGGTKLEIKR
B10: C22 (antibody, human IgG1, kappa, V domains shown)
VH: EVQLQQSGPEPVKPGASVKISCKASGYTFTDYNIHWVRQSHGKSLEWIGYIYPYNGGAGYNQKFKSKATLTVDSSSSTAYMELRSLTSEDSAVYYCAREELRRDYGMDYWGQGTSVTVSS
VL: DIQMTQSPASLSASVGETVTITCRASENIYSYLAWYQQKQGKSPQLLVYNAKTLAEGVPSRFSGSGSGTQFSLKINSLQPEDFGSYYCQHHYGTPYTFGGGTKLETKR
B11: C36 (antibody, human IgG1, kappa, V domains shown)
VH: QIQLVQSGPELKKPGETVKISCKASGYTFTTYGMSWVKQAPGKGLKWMGWINTYSGVPTYADDFKGRFAFSLETSASNAYLQINNLKNEDTATYFCARELPFTTIIGTKDYWGQGTTLTVSS
VL: DIVLIQSPATLSVTPGDSVSLSCRASQFISNNLHWYQQKSHESPRLLIKYASQSISGIPSRFSGGGSGTDFTLTVNSVETEDFGMYFCQQSNSWPHTFGGGTKLEIKR
B12: C56-2 (antibody, human IgG1, kappa, V domains shown)
VH: EVQLVESGGGLVKPGGSLKLSCAASGFTFSDYALSWVRQTPEKRLEWVATIRDGGSYTYYSDNEKGRFTISRDNAKNNLYLQMSHLRSEDTAMYYCTRDQVNRGWFTYWGQGTLVTVSA
VL: QVILTQSPAIMSASLGERVTMTCSASSSVSSSYFHWFQQKPGSSPKLWIYSTSNLASGVPPRFSGSGSGTSYSLTISSMEAEDAATYYCHQHHRSPLTFGAGTKLELKR
B13: C59 (antibody, human IgG1, kappa, V domains shown)
VH: B12 VH with D31G, R87K
VL: B12 VL
B14: C145 (antibody, human IgG1, kappa, V domains shown)
VH: EVQLQQSGPEVVKPGASVRISCKASGNTFTDFFINWVKQSHGKSLEWIGDVNPDSNGANYNQKFKGKATLTVDKSSGTAFMGLRSLTSEDSAVYYCATLFFDNWGQGTTLTVSS
VL: B4 VL with S12N, T15A, R24K, T78I, I91L, T99S, R109K
B15: C9 (antibody, human IgG1, kappa, V domains shown)
VH: EVQLQQSGAELVKPGASVKLSCTASGFNIKDIYMHWLKQRPEQGLEWIGRIDPTNGNSEYDPRFRGKATLTADTSSNIAYLQLSSLTSEDTAVYYCARFGIYPYFDYWGQGTTLTVSS
VL: GIVMTQTPKFLLVSAGDRVTITCKASQSVNKAVVWYQQKPGQSPKLLISYASNRYTGVPDRFTGSGYGTDFTFSISTVQAEDLAVYFCQQDYSSPWTFGGGTKLEIKR
B16: C21 (antibody, human IgG1, kappa, V domains shown)
VH: B15 VH with I51V, R65Q
VL: B15 VL with G1S, S49N
B17: C28 (antibody, human IgG1, kappa, V domains shown)
VH: QIQLQQSGPELVKPGPSVKISCKASGYTFTDYYINWVKQRPGQGLEWIGWIYPGSGYTKYNEKLKGRATLTVDTSSSTAYMQLSSLTSEDSAVYFCARDSFYAMDYWGQGTSVTVSS
VL: DIVMTQSQKFMSTTVGDRVSITCKASQNVGTAVAWYQQKPGQSPKLLIYSASNRYTGVPDRFTGSGSGTDFTLTITNMQSEDLADYFCLQYSSYLTFGAGTKLELKR
B18: C31 (antibody, human IgG1, kappa, V domains shown)
VH: B17 VH with P16A, N35A, P53L, Y57H, K59M, K63N, L64F, R67K
VL: B17 VL with T76S, L89Q, S93T
B19: C23 (antibody, human IgG1, kappa, V domains shown)
VH: QVQLQQSGPELVKPGTSVKISCKASGYTFTDYYINWVKQRPGQGLEWIGWIFPGSGNTYYNEKFKGRATLTVDKSSSTAYMLLSSLTSEDSAVYFCARDGGLRGPFDYWGQGTTLTVSS
VL: DIQMTQSPSSLSASLGGKVTITCKASQDINKYIAWFQHKPGKGPRLLIHFTSTLQSGIPSRFSGSGSGGDYSFSISNLEPEDIATYYCLQYDYLYTFGGGTTLEIKR
B20: C125 (antibody, human IgG1, kappa, V domains shown)
VH: EVKLVESGGGLVQPGGSLKLSCAASGFTFSSYTMSWVRQTPEKRLELVAELSNSGGSFHYPDNVKGRFTISRDNAKNTLYLQMSSLKSEDTAMYYCARHNWDVYAMDYWGQGTSVTVSS
VL: DIQMSQSPASLSASVGETVTITCRASENVNSYLAWYQQKQGRSPQFLVYNAQTLAEGVPSRFSGGGSGTQFSLKINSLQPEDFGSYYCQHHYGNPTFGGGTKLEIKR

For one experiment, the target named is T1, human CD112R antigen protein …. As to the kind of experiment: SPR (Biacore X100), antibody captured on Protein A chip, huCD112R-His as analyte, 1:1 Langmuir. On the technique in general: SPR reads the build-up and loss of mass on a sensor chip optically.
As to B1, the Kd (in general, the equilibrium constant for the complex coming apart) was 0.0392 nM.
The same measure, in the same setting: under B2 stands 0.716 nM; under B3, 0.222 nM; under B4, 0.0769 nM.

Another experiment has the same target. The experiment in a line: ELISA, huCD112R-His coated on plate.
B1: the EC50 – broadly, the concentration that produces a half-maximal response – was 0.043 nM.
In the case of B2, the EC50 was 0.021 nM.
For the molecule B5, the midpoint of the response, the EC50, lay at 0.036 nM.
Same read-out and setting: under B6 stands 0.038 nM.
Same read-out and setting: for B7 the value was 0.036 nM; for B8, 0.691 nM.
In the case of B3, the EC50 was determined as 0.029 nM.
Still for that read-out and setting: under B9 stands 0.039 nM.
With B10, the EC50 is 0.029 nM.
The same measure, in the same setting: under B11 stands 0.219 nM.
As to B12, the EC50 amounted to 0.032 nM.
In the case of B13, the EC50 came out at 0.044 nM.
B4 returned an EC50 of 0.035 nM.
B14: the EC50 is 0.038 nM.
In the case of B15, the EC50 amounted to 0.052 nM.
Molecule B16 had an EC50 of 0.066 nM.
The molecule B17 returned an EC50 of 0.049 nM.
With B18, the response was half-maximal at 0.038 nM (EC50).
Same read-out and setting: for B19 the value was 0.06 nM; for B20, 0.049 nM.

The target of the next experiment is T2, monkey antigen protein (monkey CD112R, …). The experiment in a line: ELISA, monkey antigen protein (as Example 6.1). (In general: ELISA stands for enzyme-linked immunosorbent assay.)
As to B1, the EC50 worked out at 0.085 nM.
As for B2, the EC50 stood at 0.065 nM.
Turning to B5, the EC50 stood at 0.074 nM.
B6 yielded an EC50 of 0.104 nM.
Still for that read-out and setting: for B7 the value was 0.074 nM; for B8, 0.141 nM.
Consider B3, for which the EC50 came out at 0.034 nM.
B9 had an EC50 of 0.06 nM.
Molecule B10 gave an EC50 of 0.125 nM.
Molecule B11 returned an EC50 of 0.101 nM.
On the same count and under the same terms, under B12 stands 0.044 nM; under B13, 0.049 nM.
Molecule B4 showed an EC50 of 0.062 nM.
Still for that read-out and setting: under B14 stands 0.042 nM.
B15 came in with an EC50 of 0.07 nM.
Still for that read-out and setting: under B16 stands 0.068 nM; under B17, 0.054 nM.
B18 yielded an EC50 of 0.12 nM.
In the case of B19, the EC50 stood at 0.125 nM.
In the case of B20, the midpoint of the response, the EC50, lay at 0.079 nM.
